Consider two molecules from US20180267027A1, “FLUORESCENT BIOSENSOR FOR […] ASSAY” (The Regents of the University of California, priority 2015, published 2018).

Data set [1] in a line: In vitro fluorescence assays of SAH biosensors (turn-on, ligand selectivity). Type of data set: biochemical. As for the experimental part:
Other conditions, including temperature, concentrations of MgCl2, DFHBI, ligand or RNA, were varied in different experiments and are indicated in the figures. The RNA was renatured in buffer at 70° C. for 3 min and cooled to ambient temperature for 5 min prior to addition to the reaction solution. DFHBI was added to a solution containing buffer and ligand, and then RNA was added at the end before fluorescence measurement. Binding reactions were performed in 100 μL volumes and were incubated at the indicated temperature in a Corning Costar 3915 96-well black plate until equilibrium was reached, which in some cases takes 30 to 60 minutes. The fluorescence emission was measured using a Molecular Devices SpectraMax Paradigm Multi-Mode detection platform plate reader (Sunnyvale, Calif.) with the following instrument parameters: 448 nm excitation, 506 nm emission.

The target in data set [2] is T1, protein lysine MTase SET7/9 (Homo sapiens, UniProt Q8WTS6).
T1 construct: purchased New England Biolabs Inc (Ipswich, Mass.)
T1 sequence (Q8WTS6 1-366): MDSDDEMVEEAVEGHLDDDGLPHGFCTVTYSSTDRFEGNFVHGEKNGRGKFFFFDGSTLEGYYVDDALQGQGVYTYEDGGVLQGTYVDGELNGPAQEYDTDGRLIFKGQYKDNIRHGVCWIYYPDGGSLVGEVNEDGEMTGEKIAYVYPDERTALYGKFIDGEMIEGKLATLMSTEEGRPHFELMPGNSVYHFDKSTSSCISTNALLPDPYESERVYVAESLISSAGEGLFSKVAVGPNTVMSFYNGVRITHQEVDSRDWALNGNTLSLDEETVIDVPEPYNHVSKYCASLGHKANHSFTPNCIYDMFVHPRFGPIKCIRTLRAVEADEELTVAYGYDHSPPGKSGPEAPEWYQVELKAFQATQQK
The data set can be described thus: Protein MTase SET7/9 activity assay with SAH biosensor. It counts as biochemical. The method, then: To initiate the enzyme reaction, 5 μL of H3 peptide substrate (N′-[…]-LAGGKKC-C′) (SEQ ID NO:132) was added to 5 μL of 2×enzyme reaction solution containing SET7/9, SAM, and NEB HMT buffer. Generally, final concentrations are 50 μM H3 peptide, 0.1 U/μL SET7/9, 25 μM SAM, and lx NEB HMT buffer (50 mM Tris, pH 9.0, 5 mM MgCl2, and 4 mM DTT). The reaction solution was incubated at 37° C. for 2 hours to allow the enzyme reaction to proceed.
To initiate the fluorescent biosensor reaction, 10 μL of the enzyme reaction was added to 90 μL of biosensor reaction solution containing renatured RNA, DFHBI, and buffer. […] For the SAH control, SAH was added to a final concentration of 0.5 μM in place of the enzyme reaction. In vitro fluorescence assays were conducted as described above.

Data set [3] deals with T2, SET7/9 (Homo sapiens, UniProt Q8WTS6).
T2 construct: purchased New England Biolabs Inc (Ipswich, Mass.)
T2 sequence (Q8WTS6 1-366): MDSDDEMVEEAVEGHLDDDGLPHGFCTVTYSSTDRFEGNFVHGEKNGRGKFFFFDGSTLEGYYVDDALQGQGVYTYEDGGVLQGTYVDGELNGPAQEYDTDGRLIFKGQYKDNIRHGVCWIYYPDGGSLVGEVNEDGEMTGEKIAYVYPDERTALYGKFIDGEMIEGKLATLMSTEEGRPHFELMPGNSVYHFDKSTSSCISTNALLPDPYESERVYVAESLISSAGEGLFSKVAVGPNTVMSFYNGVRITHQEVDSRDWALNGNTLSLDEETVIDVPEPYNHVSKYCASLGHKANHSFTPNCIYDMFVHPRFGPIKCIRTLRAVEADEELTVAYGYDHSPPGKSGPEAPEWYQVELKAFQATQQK
The data set can be described thus: High-throughput screening (HTS) assay of SET7/9 activity and inhibition, Z′ score. It counts as biochemical. The conditions noted are these: 384-well plate, 16 replicates. As for the experimental part:
For HTS experiments, samples were dispensed into a Grenier 781077 384-well flat bottom black plate using an Eppendorf Repeater […] pipetter to dispense reaction components. Z' scores were calculated from 16 well replicates in the 384-well plate. For the HTS SET7/9 activity assay, 3 μL of H3 peptide or water was added to 9 μL of reaction solution containing SET7/9 MTase, SAM, and NEB HMT Reaction Buffer in each well. Final concentrations are: 0.25 U/10 μL SET7/9, 25 μM SAM, 50 μM H3 peptide and 1×NEB HMT Reaction Buffer (50 mM Tris, pH 9.0, 5 mM MgCl2, and 4 mM DTT). After 30 min incubation at 37° C., to initiate the fluorescent biosensor reaction, 18 μL of biosensor reaction solution containing renatured RNA, DFHBI, and buffer was added to each well. […] In vitro fluorescence assays were conducted as described above. For the HTS SET7/9 inhibition assay, 4.5 μL of sinefungin or water was added to 8 μL of reaction solution containing SET7/9 MTase, and NEB HMT Reaction Buffer in each well. After 15 minutes incubation at 37° C., methylation reaction was initiated by adding 2.5 μL solution containing both SAM and H3 peptide. Final concentrations are: 0.25 U/10 μL SET7/9, 25 μM SAM, 50 μM H3 peptide, 300 μM sinefungin and 1×NEB HMT Reaction Buffer (50 mM Tris, pH 9.0, 5 mM MgCl2, and 4 mM DTT). After 30 min incubation at 37° C., to initiate the fluorescent biosensor reaction, 15 μL of biosensor reaction solution containing renatured RNA, DFHBI, and buffer was added to each well. […] In vitro fluorescence assays were conducted as described above.

Data set [4] deals with E. coli BL21* cells. Description: In vivo fluorescence of RNA aptamers by flow cytometry. It counts as cell-based. Particulars: 100 μM DFHBI. As for the experimental part: To compare the fluorescence of Spinach2 and cpSpinach2 in live cells, pET31b plasmids encoding the RNA aptamers in a tRNA scaffold were transformed into E. coli BL21* cells. Following IPTG induction of transcription, cells were incubated with DFHBI and fluorescence was quantitated by flow cytometry. The mean cellular fluorescence was measured as a function of increasing DFHBI concentration in the media, in order to determine the optimal conditions for aptamer fluorescence. Unexpectedly, full saturation of fluorescence was not observed, even when E. coli cells were incubated in media containing up to 800 μM DFHBI (FIG. 5). However, the non-specific fluorescence signal increased when DFHBI concentration exceeded 100 μM. Thus, to balance higher fluorescence activation and lower non-specific background, a concentration of 100 μM was adopted for further experiments. Under these conditions, cellular fluorescence activation for Spinach2 and cpSpinach2 was on average 34 and 22-fold over background, respectively (FIG. 6). Thus, cpSpinach2 is a functional alternative to Spinach2. Although it currently performs slightly poorer in terms of fluorescence activation in live cells, improvements are likely possible through directed mutagenesis for higher thermal stability, improved folding efficiency and less Mg^2+ dependency. […]
On the technique in general: In flow cytometry, cells or beads pass a laser one at a time.

Data set [5] concerns E. coli BL21* wild-type and ΔMTAN cells. Description: Live cell detection of SAH accumulation, wild-type versus MTAN knockout, flow cytometry. It counts as cell-based. The method, then: A Targetron® Gene Knockout System (Sigma-Aldrich) was used to knock out the MTAN gene from E. coli BL21*, following manufacturer protocols.
Preparation of cell samples for flow cytometry was carried out by inoculating 2 mL of auto-induction media/Carb (F. Studier, Protein Expression and Purification 2005, 41, 207-234) with E. coli BL21* cells from colonies grown on an LB/Carb culture plate, containing pET31b plasmids encoding RNA aptamers. […] Cells were then grown aerobically overnight to saturation (0D600 varied from 5 to 10) and diluted to OD600˜0.01-0.05 in M9 minimal media (pH ˜6.0) with 100 μM DFHBI-1T. Cellular fluorescence was measured for 30,000 cells using a Life Technologies Attune N×T Acoustic Focusing Cytometer.

Data set [6] relates to E. coli cells. Description: RNA stability in E. coli, cpSpinach2 fluorescence in M9 minimal media. Type of data set: cell-based. Particulars: M9 minimal media without inducers, monitored for 4 h. The method, then: Fluorescence of cpSpinach2-expressing E. coli cells grown 16 hrs in auto-induction media, then pelleted and re-suspended in M9 minimal media without RNA transcription inducers.
RNA stability in E. coli: For the time-course experiment shown in FIG. 4D, E. coli cells from overnight culture (16 h post-inoculation and induction) were pelleted and re-suspended in M9 minimal media without transcriptional inducers (lactose). To analyze the stability of RNA levels under these conditions, E. coli cells expressing cpSpinach2 were processed using the same procedures and fluorescence was monitored for 4 h. Fluorescence readings remained stable for up to 3 h in M9 minimal media. Therefore, we expect that the related biosensor levels would be stable in the same time-frame, so the fluorescence change shown in FIG. 4D reflects the dynamic change in SAH levels.

B1: Aeh1-4: SAH biosensor, SEQ ID NO: 44 (nucleic acid)
chain: CGCCCCGAGGAGCGCTGCAACAGGTTGTTGAGTAGAGTGTGAGCTCCGTAACTAGTTACATCGCAAGATGTAACTGAATGAAATGGTGAAGGACGGGTCCACCTGCCAGGCTCGGGGATGGCGCCCCATCGTTCCAACGGCGCTCAGCGAAA
Turning to B1, in data set [1] (3 mM magnesium), the “fluorescence response to SAH at low magnesium” value is “decreased fluorescence turn-on”. The fluorescence turn-on entry in data set [1] (37° C., 10 mM Mg^2+) is listed as “around 5 fold”. The “change of fluorescence turn-on with increasing magnesium” value in data set [1] (magnesium from 1 to 20 mM) is on record as “marked improvement in fluorescence turn-on”. Further, the “fluorescence response to SET7/9 activity” value in data set [2] is recorded as “displayed a fluorescence response to SET7/9 activity”. For the same molecule, the “Z′ score, substrate screen” value in data set [3] is given as 0.74. The “Z′ score, inhibitor screen” value in data set [3] (300 μM sinefungin) is 0.44.

B2: cpSpinach2: circular permutant of the Spinach2 aptamer, SEQ ID NO: 93 (nucleic acid)
chain: GCAGCCTACTTGTTGAGTAGAGTGTGAGCTCCGTAACTAGTTACATCGCAAGATGTAACTGAATGAAATGGTGAAGGACGGGTCCAGTAGGCTGC
modifications: expressed or natural sequence
For B2, in data set [4], the “cellular fluorescence activation over background” value is 22 fold. Also, the “fold change in fluorescence between wild-type and MTAN knockout strain 2” value in data set [5] (E. coli BL21* MTAN knockout strain 2) is recorded as 1.4 ×. For the same molecule, in data set [5] (E. coli BL21*, flow cytometry), the “fluorescence signal in ΔMTAN versus wild-type cells” value was “no significant difference in signal”. Besides, the “time fluorescence readings remained stable” value in data set [6] is on record as “up to 3 h”.
